The source of these data is the nanobody polyreactivity screen of Harvey et al. (2022).

A short description of the series: yeast display, Sf9 membrane polyspecificity reagent, FACS + sequencing; frameworks hold sequencing errors. In outline: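 Nanobodies from a synthetic yeast display library (Saccharomyces cerevisiae BJ5465), induced 36–48 hours with galactose, were stained 1 hour at 4 °C with 10% biotinylated, detergent-solubilized Sf9 membrane reagent, enriched on streptavidin microbeads, then FACS-sorted. Anti-HA (expression) and streptavidin (reagent binding) fluorescence set low and high (top ~1%) gates. Polyreactivity labels come from the gate of origin. Genes were colony-PCR amplified, MiSeq 2 × 250 sequenced and filtered by CDR length.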
In the case of “QVQLVESGGGLVQAGGSLRLSCAASGRTFRYYAMGWYRQAPGKERELVAAITRSGGSTNYADSVKGRFTISRDNAKNTVYLQMNSLKPEDTAVYYCNREGRSVSGYYYYWGQGTQVTVSS”, the “polyreactivity (PSR sort gate)” value was “high polyreactivity”.

“QVQLVESGGGLVQAGGSLRLSCAASGRTFRYYAMGWYRQAPGKERELVAVITQSGGRTYYADSVKGRFTISRDNAKNTVYLQMNSLKPEDTAVYYCNAVFPGFFRSSPTYDYWGQGTQVTVSS”: the “polyreactivity (PSR sort gate)” value is on record as “high polyreactivity”.

As to “QVQLVESGGGLVQAGGSLRLSCAASGRTFRYYTMGWYRQAPGKEREFVAAISSTGGTYYADSVKGRFTISRDNAKNTVYLLMNSLKPEDTAFYYCAATFIQVVVNVQLYDYDYWGQGTQVTVSS”, the “polyreactivity (PSR sort gate)” value is reported as “low polyreactivity”.

For the sequence “QVQLVESGGGLVQAGGSLRLSCAASGRTFRYYTMGWYRQAPGKEREFVAAISSTGGTYYADSVKGRFTISRDNAKNTVYLQMNSLKPEDTAVYYCNADTIYYAGDFRYDYWGQGTQVTVSS”, the “polyreactivity (PSR sort gate)” value is “low polyreactivity”.

With “QVQLVESGGGLVQAGGSLRLSCAASGRTFRYYTMGWYRQAPGKERELVAAISRGGRTYYADSVKGRFTISRDNGKNTVYLQMNSLKPEDTAVYNCAAQLFREYYYWGHGTQVTVSS”, the “polyreactivity (PSR sort gate)” value is given as “high polyreactivity”.

With “QVQLVESGGGLVQAGGSLRLSCAASGRTFSAYAMGWYRQATGQERELVAAISRSGGSTYYADSVKGRFTISRDNAKNTVYLQMNSLKPEDTAVYYCAAKGGSGLYNWGQGTQVTVSS”, the “polyreactivity (PSR sort gate)” value is given as “high polyreactivity”.

As for “QVQLVESGGGLVQAGGSLRLSCAASGRTFSFYAMGWYRQAPGKERELVAGIDWDDGSTSYADSVKGRFTISRDNAKNTVYLQMNSLKPEDTAVYYCAAGPYAGVDPGDYYYWGQGTQVTVSS”, the “polyreactivity (PSR sort gate)” value is “low polyreactivity”.

With “QVQLVESGGGLVQAGGSLRLSCAASGRTFSGNAMGWYRQAPGKERELVAGISTSGGSTYYADSVKGRFTISRDNANNTVYVQMNSLKPEDTAVYYCAADRPGSFTTMDYWGQGSQVTVSS”, the “polyreactivity (PSR sort gate)” value is listed as “high polyreactivity”.

For the sequence “QVQLVESGGGLVQAGGSLRLSCAASGRTFSGYAMGWYRQAPGKARELVAGITWNGGRTYYADSVKGRFTISRDNAKNTVYLQMNSLKPEDTAVYYCNKLGAVYPKYGYWGQGTQVTVSS”, the “polyreactivity (PSR sort gate)” value was “high polyreactivity”.

For the sequence “QVQLVESGGGLVQAGGSLRLSCAASGRTFSGYAMGWYRQAPGKEREFVAAITSSGSSTYYADSVKWRFTISRVIAKNTVYLQMNSLKPEDTAVYYCAATPQAHSERYYYQRKYDYWGQGTQVTVSS”, the “polyreactivity (PSR sort gate)” value was “low polyreactivity”.

As to “QVQLVESGGGLVQAGGSLRLSCAASGRTFSGYAMGWYRQAPGKERELVAAISNSGGRTYYADSVKGRFTISRDNAKNTDYLQMNSLKPEDTAVYYSNAVSYWRYDYWGQGTQVTVSS”, the “polyreactivity (PSR sort gate)” value is given as “high polyreactivity”.

For “QVQLVESGGGLVQAGGSLRLSCAASGRTFSGYAMGWYRQAPGKERELVAAITSSGSSTYYADSVKGRFTISRDKAKNTVYLQMNCLKPEDTAVYYCAATPQAHSERYYSQRKYDYWGQGTQVTVSS”, the “polyreactivity (PSR sort gate)” value is “low polyreactivity”.

On to “QVQLVESGGGLVQAGGSLRLSCAASGRTFSGYAMGWYRQAPGKERELVAAITSSGSSTYYADSVKGRFTISRDNAKNTVYLQMNSLKPEDTAVYYCAATPQAHSERYYYQRKYDYWGQGTQVTVSS”, for which the “polyreactivity (PSR sort gate)” value is listed as “low polyreactivity”.

As for “QVQLVESGGGLVQAGGSLRLSCAASGRTFSGYAMGWYRQAPGKERELVAVITYSGGSTYYADSVKGRFTISRDNAKNTVYLQMNSLKPEDTAVYYCNADYVIFYQLVEYDYWGQGTQVTVSS”, the “polyreactivity (PSR sort gate)” value is on record as “low polyreactivity”.

For the sequence “QVQLVESGGGLVQAGGSLRLSCAASGRTFSHYAMGWYRKAPGKERELVDTITRNGGITYYADSVKGRFTISRDNAKNTVYLQMNSLKPEDTAVYYCNTETYHVRRLFDYWGQGTQVTVSS”, the “polyreactivity (PSR sort gate)” value is reported as “low polyreactivity”.

On to “QVQLVESGGGLVQAGGSLRLSCAASGRTFSHYAMGWYRQAPGKERELVAAISGSGGTTYYADSVKGRFTISRDNAKNTVYLQMNSLKPEDTAVYYCNTRGRYLMDYWGQGTQVTVSS”, for which the “polyreactivity (PSR sort gate)” value was “high polyreactivity”.

Regarding “QVQLVESGGGLVQAGGSLRLSCAASGRTFSIYAMGCYRQAPGKEREFVAAIRDRGTSTYYADSVKGRFTISRDNAKNTVYLQMNSLKPEDTGVFYCAAVRPYKYQDRDYWGQGTQVTVSS”, the “polyreactivity (PSR sort gate)” value is on record as “high polyreactivity”.

Take “QVQLVESGGGLVQAGGSLRLSCAASGRTFSKYTMGWYIQAPGKERELVAAISYSGGSTYYADSVKGRFTISRDNAKNTVYLKMNSLKPEDTAVYYCAARASTYKYYYWGQGTQVTVSA”: the “polyreactivity (PSR sort gate)” value is recorded as “high polyreactivity”.

Turning to “QVQLVESGGGLVQAGGSLRLSCAASGRTFSLYAMGWYRQAPGKERELVAAISWGGGSTYYADSVKGRFTISRDNAKNTVYLQMNSLKPEDTAVYYCAADDVSATKYEDDYWGQGTQVTVSS”, the “polyreactivity (PSR sort gate)” value was “low polyreactivity”.

As to “QVQLVESGGGLVQAGGSLRLSCAASGRTFSLYAMGWYRQAPGKERELVAAITLSAGSTYYADSVKGRFTISRDNAKNTVYLQMNSLKPEDTAVYYCNAAAYVWKSKQLLYVITYDYWGQGTQVTVSS”, the “polyreactivity (PSR sort gate)” value is listed as “high polyreactivity”.

As to “QVQLVESGGGLVQAGGSLRLSCAASGRTFSLYAMGWYRQAPGNDRELVAAISYNGGRTYYADSVKGRFTISRDNAKNTVYLQLNCLKQDDTAVYYCAADHGDPGGYDYWGQGTQVTVSS”, the “polyreactivity (PSR sort gate)” value is “high polyreactivity”.

Turning to “QVQLVESGGGLVQAGGSLRLSCAASGRTFSPNAMGWYRQAPGKERELVASITAIGSRTYYADSVKGRFTISRDKAKNTVYLQMNSLKPEDTAVYYCAKDDELYGTKMYSWGQGTQVTVSS”, the “polyreactivity (PSR sort gate)” value is on record as “low polyreactivity”.

On to “QVQLVESGGGLVQAGGSLRLSCAASGRTFSQYAMGWYRQAPGKERELVAAISWSGGSTYYADSVKGRFTISRDNAKNTVYLQMNSLKPEDTAVYYCAAVGKGSARSSYPVLYDYCGQGTQVTVSS”, for which the “polyreactivity (PSR sort gate)” value is given as “low polyreactivity”.

Take “QVQLVESGGGLVQAGGSLRLSCAASGRTFSRNAMGWYRQAPGKERELVATISRGGGITFYADSVKGRFTISRDNAKNTVYLQMNSLKPEDTAVYYCNADVRYVGLRRIVDYWGQGTQVTVSS”: the “polyreactivity (PSR sort gate)” value is on record as “high polyreactivity”.

In the case of “QVQLVESGGGLVQAGGSLRLSCAASGRTFSRNTMGWYRQAPGKERELVAAIRSGGRTDYADSVKGRFTISRDNAKNTVYLQMNSLKPEDTAVYYCATVAGVSRWRGGYWGQGTQVTVSS”, the “polyreactivity (PSR sort gate)” value is given as “low polyreactivity”.

“QVQLVESGGGLVQAGGSLRLSCAASGRTFSRYAMGWSRQAPGKERELVASITSRGGSTYYADSVKGRFTISRDNAKNTVYLQMNSLKPEDTAVYYCNVKPTYSTRYWEDYWGQGTQVTVSS”: the “polyreactivity (PSR sort gate)” value was “high polyreactivity”.

As to “QVQLVESGGGLVQAGGSLRLSCAASGRTFSRYAMGWYRPAPGKERELVAAISWRGSSTYYADSVKGRFTISRDNAKNTVYLQMNSLKPEYTAVYYCNTVTYPYVPALFDYWGQGTQVTVSS”, the “polyreactivity (PSR sort gate)” value is “high polyreactivity”.

Regarding “QVQLVESGGGLVQAGGSLRLSCAASGRTFSRYAMGWYRQAPGKERELVAAISRGGGSTNYADSVKGRFTISRDNAKNTVYLQMNSLKPEDTAVYYCASEYRYDWYTYGSWGQGTQVTVSS”, the “polyreactivity (PSR sort gate)” value is listed as “high polyreactivity”.

Regarding “QVQLVESGGGLVQAGGSLRLSCAASGRTFSRYAMGWYRQAPGKERELVAAISRSGGITYYADSVKGRFTISRDYAKNTVYLQMNSLKPEDTAVYYCAKVYPRVGYDYWGQGTQVTVSS”, the “polyreactivity (PSR sort gate)” value was “high polyreactivity”.

For “QVQLVESGGGLVQAGGSLRLSCAASGRTFSRYAMGWYRQAPGKERELVAAITRSGGSTYYADSVKGRFTISRDNAKNTVYLQMNSLKPEDTAVYYCATERNLRNYDYWGQGTQVTVSS”, the “polyreactivity (PSR sort gate)” value is on record as “high polyreactivity”.

For the sequence “QVQLVESGGGLVQAGGSLRLSCAASGRTFSRYAMGWYRQAPGKERELVAAITWSGGRTYYADSVKGRFTISSDNAKNTVYLQMNSLKPEDTAVYYCAASYRCYKHADPLYNYWGQGTQVTVSS”, the “polyreactivity (PSR sort gate)” value is on record as “low polyreactivity”.

For the sequence “QVQLVESGGGLVQAGGSLRLSCAASGRTFSRYAMGWYRQAPGKERELVAAITYSGGRTYYADSVKGRFTISRDNAKNTVYLQMNSLKPEDTAVYYCAKGTTSDPGYGYWGQGTQVTVSS”, the “polyreactivity (PSR sort gate)” value was “low polyreactivity”.

On to “QVQLVESGGGLVQAGGSLRLSCAASGRTFSRYAMGWYRQSPGKERELVAAITSGGGSTYYADSVKGRFTISRDNAKNTVYLQMNSLKPEDTAVYYCAVRSAPIVYVYVASWWSLYDYWGQGTQVTVSS”, for which the “polyreactivity (PSR sort gate)” value is given as “low polyreactivity”.

On to “QVQLVESGGGLVQAGGSLRLSCAASGRTFSRYAMGWYRRAPGKERELVAAITKSGGSTYYADSVKGRFTISRDNAKITVYLQMNSLKPEDTAVYYCAVRYGGRFFRKYDYWGQGTQVTVSS”, for which the “polyreactivity (PSR sort gate)” value is “high polyreactivity”.

Regarding “QVQLVESGGGLVQAGGSLRLSCAASGRTFSRYVMGWYRQAPGKERELVATISRSGGSTFYADSVKGRFTISRDTAKNTVYLQMNSLKPEDTAVYYCNKKVQGYQVTYGYCGQGTQVTVSS”, the “polyreactivity (PSR sort gate)” value was “high polyreactivity”.

As to “QVQLVESGGGLVQAGGSLRLSCAASGRTFSSNAMGWYRQAPGKERELVASISFRGGRTYYADSVKGRFTISRDNAKNTVYLQMNSLKPVDTAVYYCATAYYYFSPSRADGEYWGQGTQVTVSS”, the “polyreactivity (PSR sort gate)” value is listed as “high polyreactivity”.

For “QVQLVESGGGLVQAGGSLRLSCAASGRTFSSYAMGGYRKAPGKERELVAAISKRGVRTSYADSVKGRFTISRDNAKNTVYLQMNRLKPEDTAVYYCNATLGRTTAVFKYYWGQGTQVTVSS”, the “polyreactivity (PSR sort gate)” value is on record as “high polyreactivity”.

In the case of “QVQLVESGGGLVQAGGSLRLSCAASGRTFSSYTMGWYRQAPGKEREMVAAISKSGASTYYADSVKGRFTISRDNAKNTVYLQMNSLKPEDTAVYYLAARAYPFKIDGYWGQGTQVTVSS”, the “polyreactivity (PSR sort gate)” value is reported as “high polyreactivity”.

With “QVQLVESGGGLVQAGGSLRLSCAASGRTFSTNAMGLYRQAPGKEREFVAAITGSGGSTYYADSVKGRFTISRDNAKNTVYLQINSLKPEDTAVYYCAKRSAWHTYRYGYWGQGTQVTVSS”, the “polyreactivity (PSR sort gate)” value is “high polyreactivity”.

Take “QVQLVESGGGLVQAGGSLRLSCAASGRTFSTNAMGWYRQAPGKERELVAAISASGGSTYYADSVKGRFTISRDNAKNTVYLQMNSLKPEDTAVYYCAAYPGQWRTGYDYWGQGTQVTVSS”: the “polyreactivity (PSR sort gate)” value was “high polyreactivity”.
